Experimental data: patent US8409577

Target: T1, CD20 (human) (UniProt P11836)
T1 sequence (looked up): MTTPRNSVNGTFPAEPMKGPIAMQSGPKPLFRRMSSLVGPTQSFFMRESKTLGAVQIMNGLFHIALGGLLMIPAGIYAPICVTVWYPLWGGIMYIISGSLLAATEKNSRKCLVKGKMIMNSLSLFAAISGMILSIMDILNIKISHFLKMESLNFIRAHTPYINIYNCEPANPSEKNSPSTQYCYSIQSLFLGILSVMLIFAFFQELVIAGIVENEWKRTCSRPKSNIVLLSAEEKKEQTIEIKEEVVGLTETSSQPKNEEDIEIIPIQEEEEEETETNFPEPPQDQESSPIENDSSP
Assay: competition, flow cytometry on Ramos B cells; competitor PE-labeled monoclonal anti-CD20 antibody 3 ug/ml

CD20×CD37 bispecific scorpion (015×016) (bispecific antibody)
IC50 (read off the curve): 4 nM
